From US20220064329A1 (Novo Nordisk, published 2022)

T1: recombinant human activated Factor VII (FVIIa) (human, UniProt P08709 61-212; P08709 213-466, ten glutamate residues of the Gla domain may be gamma-carboxylated)
T1 construct: chains tethered by a disulfide bond; also called Factor VIIa; rFVIIa
T1 sequence 1: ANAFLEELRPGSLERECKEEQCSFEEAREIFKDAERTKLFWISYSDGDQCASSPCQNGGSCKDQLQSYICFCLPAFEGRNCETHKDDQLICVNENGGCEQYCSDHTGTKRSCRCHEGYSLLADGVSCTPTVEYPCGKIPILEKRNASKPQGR
T1 sequence 2: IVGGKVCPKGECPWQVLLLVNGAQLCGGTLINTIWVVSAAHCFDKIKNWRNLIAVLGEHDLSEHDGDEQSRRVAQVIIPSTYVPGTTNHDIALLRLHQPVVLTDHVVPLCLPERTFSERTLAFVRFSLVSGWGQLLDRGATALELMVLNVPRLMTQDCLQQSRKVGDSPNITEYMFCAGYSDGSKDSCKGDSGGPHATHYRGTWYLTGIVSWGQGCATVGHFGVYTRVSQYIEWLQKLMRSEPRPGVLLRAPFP


Target: T1, recombinant human activated Factor VII …
Test: BLI (Fortebio)

Kd [nM] | Binder
34 | VH SEQ ID NO 594 / VL SEQ ID NO 350 (antibody, IgG4, V domains shown, humanized 11F2; IgG4 S228P/kappa) VH: QVQLQESGPGLVKPSDTLSLTCAVSGYSISSDSAWSWIRQPPGKKLEWIGYIQYSGSTNYNPSLKSRVTMSVDTSKNQFSLKLSSVTALDTAVYYCARSVNYYGNSFAVGPWGQGTLVTVSS VL: EIVLTQSPATLSLSPGERATLSCRASQGISDYLHWYQQKPGQAPRLLIKYTSQPATGIPARFSGSGSGTDFTLTISSLEPEDFAVYYCQNGHSFPLTFGAGTKLELK
35 | VH SEQ ID NO 594 / VL SEQ ID NO 470 (antibody, IgG4, V domains shown, humanized 11F2; IgG4 S228P/kappa) VH: QVQLQESGPGLVKPSDTLSLTCAVSGYSISSDSAWSWIRQPPGKKLEWIGYIQYSGSTNYNPSLKSRVTMSVDTSKNQFSLKLSSVTALDTAVYYCARSVNYYGNSFAVGPWGQGTLVTVSS VL: EIVLTQSPATLSLSPGERATLSCRASQGVSDYLHWYQQKPGQAPRLLIKYASQPATGIPARFSGSGSGTDFTLTISSLEPEDFAVYYCQNGHSFPLTFGQGTKLEIK
33 | VH SEQ ID NO 594 / VL SEQ ID NO 486 (antibody, IgG4, V domains shown, humanized 11F2; IgG4 S228P/kappa) VH: QVQLQESGPGLVKPSDTLSLTCAVSGYSISSDSAWSWIRQPPGKKLEWIGYIQYSGSTNYNPSLKSRVTMSVDTSKNQFSLKLSSVTALDTAVYYCARSVNYYGNSFAVGPWGQGTLVTVSS VL: EIVLTQSPATLSLSPGERATLSCRASQGVSDYLHWYQQKPGQAPRLLIKYASQPATGIPARFSGSGSGTDFTLTISSLEPEDFGVYYCQNGHSFPLTFGQGTKLEIK
32 | VH SEQ ID NO 594 / VL SEQ ID NO 454 (antibody, IgG4, V domains shown, humanized 11F2; IgG4 S228P/kappa) VH: QVQLQESGPGLVKPSDTLSLTCAVSGYSISSDSAWSWIRQPPGKKLEWIGYIQYSGSTNYNPSLKSRVTMSVDTSKNQFSLKLSSVTALDTAVYYCARSVNYYGNSFAVGPWGQGTLVTVSS VL: EIVLTQSPATLSLSPGERATLSCRASQGVSDYLHWYQQKPGEAPRLLIKYASQPATGIPARFSGSGSGTDFTLTISSLEPEDFAVYYCQNGHSFPLTFGQGTKLEIK
140 | VH SEQ ID NO 594 / VL SEQ ID NO 382 (antibody, IgG4, V domains shown, humanized 11F2; IgG4 S228P/kappa) VH: QVQLQESGPGLVKPSDTLSLTCAVSGYSISSDSAWSWIRQPPGKKLEWIGYIQYSGSTNYNPSLKSRVTMSVDTSKNQFSLKLSSVTALDTAVYYCARSVNYYGNSFAVGPWGQGTLVTVSS VL: EIVLTQSPATLSLSPGERATLSCRASQGLSDYLHWYQQKPGEAPRLLIKYASQPATGIPARFSGSGSGTDFTLTISSLEPEDFAVYYCQNGHSFPLTFGQGTKLEIK
39 | VH SEQ ID NO 594 / VL SEQ ID NO 462 (antibody, IgG4, V domains shown, humanized 11F2; IgG4 S228P/kappa) VH: QVQLQESGPGLVKPSDTLSLTCAVSGYSISSDSAWSWIRQPPGKKLEWIGYIQYSGSTNYNPSLKSRVTMSVDTSKNQFSLKLSSVTALDTAVYYCARSVNYYGNSFAVGPWGQGTLVTVSS VL: EIVLTQSPATLSLSPGERATLSCRASQGVSDYLHWYQQKPGQAPRLLIKYASQPATGIPARFSGSGSGTDFTLTISSLEPEDFAVYYCQNGHSFPLTFGAGTKLEIK
200 | VH SEQ ID NO 594 / VL SEQ ID NO 478 (antibody, IgG4, V domains shown, humanized 11F2; IgG4 S228P/kappa) VH: QVQLQESGPGLVKPSDTLSLTCAVSGYSISSDSAWSWIRQPPGKKLEWIGYIQYSGSTNYNPSLKSRVTMSVDTSKNQFSLKLSSVTALDTAVYYCARSVNYYGNSFAVGPWGQGTLVTVSS VL: EIVLTQSPATLSLSPGERATLSCRASQGVSDYLHWYQQKPGQAPRLLIKYASQPATGIPARFSGSGSGTDFTLTISSLEPEDFAVYYCQQGHSFPLTFGQGTKLEIK
24 | VH SEQ ID NO 594 / VL SEQ ID NO 358 (antibody, IgG4, V domains shown, humanized 11F2; IgG4 S228P/kappa) VH: QVQLQESGPGLVKPSDTLSLTCAVSGYSISSDSAWSWIRQPPGKKLEWIGYIQYSGSTNYNPSLKSRVTMSVDTSKNQFSLKLSSVTALDTAVYYCARSVNYYGNSFAVGPWGQGTLVTVSS VL: EIVLTQSPATLSLSPGERATLSCRASQGISDYLHWYQQKPGQAPRLLIKYTSQPATGIPARFSGSGSGTDFTLTISSLEPEDFAVYYCQNGHSFPLTFGQGTKLEIK
43 | VH SEQ ID NO 594 / VL SEQ ID NO 494 (antibody, IgG4, V domains shown, humanized 11F2; IgG4 S228P/kappa) VH: QVQLQESGPGLVKPSDTLSLTCAVSGYSISSDSAWSWIRQPPGKKLEWIGYIQYSGSTNYNPSLKSRVTMSVDTSKNQFSLKLSSVTALDTAVYYCARSVNYYGNSFAVGPWGQGTLVTVSS VL: EIVLTQSPATLSLSPGERATLSCRASQGVSDYLHWYQQKPGQAPRLLIKYASQPATGIPARFSGSGSGTDFTLTISSLEPEDVAVYYCQNGHSFPLTFGQGTKLEIK
30 | VH SEQ ID NO 594 / VL SEQ ID NO 502 (antibody, IgG4, V domains shown, humanized 11F2; IgG4 S228P/kappa) VH: QVQLQESGPGLVKPSDTLSLTCAVSGYSISSDSAWSWIRQPPGKKLEWIGYIQYSGSTNYNPSLKSRVTMSVDTSKNQFSLKLSSVTALDTAVYYCARSVNYYGNSFAVGPWGQGTLVTVSS VL: EIVLTQSPATLSLSPGERATLSCRASQGVSDYLHWYQQKPGQAPRLLIKYTSQPATGIPARFSGSGSGTDFTLTISSLEPEDFAVYYCQNGHSFPLTFGQGTKLEIK

Further lines, the binder ahead of its results:

Binder | Kd [nM]
VH SEQ ID NO 586 / VL SEQ ID NO 462 (antibody, IgG4, V domains shown, humanized 11F2; IgG4 S228P/kappa) VH: QVQLQESGPGLVKPSDTLSLTCAVSGYSISSDSAWSWIRQPPGKGLEWIGYIQYSGSTNYNPSLKSRVTMSVDTSKNQFSLKLSSVTALDTAVYYCARSVNYYGNSFAVGYWGQGTLVTVSS VL: EIVLTQSPATLSLSPGERATLSCRASQGVSDYLHWYQQKPGQAPRLLIKYASQPATGIPARFSGSGSGTDFTLTISSLEPEDFAVYYCQNGHSFPLTFGAGTKLEIK | 18
VH SEQ ID NO 594 / VL SEQ ID NO 334 (antibody, IgG4, V domains shown, humanized 11F2; IgG4 S228P/kappa) VH: QVQLQESGPGLVKPSDTLSLTCAVSGYSISSDSAWSWIRQPPGKKLEWIGYIQYSGSTNYNPSLKSRVTMSVDTSKNQFSLKLSSVTALDTAVYYCARSVNYYGNSFAVGPWGQGTLVTVSS VL: EIVLTQSPATLSLSPGERATLSCRASQGISDYLHWYQQKPGQAPRLLIKYASQPATGIPARFSGSGSGTDFTLTISSLEPEDFAVYYCQNGHSFPLTFGQGTKLEIK | 32
VH SEQ ID NO 586 / VL SEQ ID NO 494 (antibody, IgG4, V domains shown, humanized 11F2; IgG4 S228P/kappa) VH: QVQLQESGPGLVKPSDTLSLTCAVSGYSISSDSAWSWIRQPPGKGLEWIGYIQYSGSTNYNPSLKSRVTMSVDTSKNQFSLKLSSVTALDTAVYYCARSVNYYGNSFAVGYWGQGTLVTVSS VL: EIVLTQSPATLSLSPGERATLSCRASQGVSDYLHWYQQKPGQAPRLLIKYASQPATGIPARFSGSGSGTDFTLTISSLEPEDVAVYYCQNGHSFPLTFGQGTKLEIK | 17
VH SEQ ID NO 586 / VL SEQ ID NO 486 (antibody, IgG4, V domains shown, humanized 11F2; IgG4 S228P/kappa) VH: QVQLQESGPGLVKPSDTLSLTCAVSGYSISSDSAWSWIRQPPGKGLEWIGYIQYSGSTNYNPSLKSRVTMSVDTSKNQFSLKLSSVTALDTAVYYCARSVNYYGNSFAVGYWGQGTLVTVSS VL: EIVLTQSPATLSLSPGERATLSCRASQGVSDYLHWYQQKPGQAPRLLIKYASQPATGIPARFSGSGSGTDFTLTISSLEPEDFGVYYCQNGHSFPLTFGQGTKLEIK | 18
VH SEQ ID NO 586 / VL SEQ ID NO 478 (antibody, IgG4, V domains shown, humanized 11F2; IgG4 S228P/kappa) VH: QVQLQESGPGLVKPSDTLSLTCAVSGYSISSDSAWSWIRQPPGKGLEWIGYIQYSGSTNYNPSLKSRVTMSVDTSKNQFSLKLSSVTALDTAVYYCARSVNYYGNSFAVGYWGQGTLVTVSS VL: EIVLTQSPATLSLSPGERATLSCRASQGVSDYLHWYQQKPGQAPRLLIKYASQPATGIPARFSGSGSGTDFTLTISSLEPEDFAVYYCQQGHSFPLTFGQGTKLEIK | 27
VH SEQ ID NO 594 / VL SEQ ID NO 318 (antibody, IgG4, V domains shown, humanized 11F2; IgG4 S228P/kappa) VH: QVQLQESGPGLVKPSDTLSLTCAVSGYSISSDSAWSWIRQPPGKKLEWIGYIQYSGSTNYNPSLKSRVTMSVDTSKNQFSLKLSSVTALDTAVYYCARSVNYYGNSFAVGPWGQGTLVTVSS VL: EIVLTQSPATLSLSPGERATLSCRASQGISDYLHWYQQKPGEAPRLLIKYTSQPATGIPARFSGSGSGTDFTLTISSLEPEDFAVYYCQNGHSFPLTFGQGTKLEIK | 23
VH SEQ ID NO 586 / VL SEQ ID NO 470 (antibody, IgG4, V domains shown, humanized 11F2; IgG4 S228P/kappa) VH: QVQLQESGPGLVKPSDTLSLTCAVSGYSISSDSAWSWIRQPPGKGLEWIGYIQYSGSTNYNPSLKSRVTMSVDTSKNQFSLKLSSVTALDTAVYYCARSVNYYGNSFAVGYWGQGTLVTVSS VL: EIVLTQSPATLSLSPGERATLSCRASQGVSDYLHWYQQKPGQAPRLLIKYASQPATGIPARFSGSGSGTDFTLTISSLEPEDFAVYYCQNGHSFPLTFGQGTKLEIK | 15
VH SEQ ID NO 594 / VL SEQ ID NO 326 (antibody, IgG4, V domains shown, humanized 11F2; IgG4 S228P/kappa) VH: QVQLQESGPGLVKPSDTLSLTCAVSGYSISSDSAWSWIRQPPGKKLEWIGYIQYSGSTNYNPSLKSRVTMSVDTSKNQFSLKLSSVTALDTAVYYCARSVNYYGNSFAVGPWGQGTLVTVSS VL: EIVLTQSPATLSLSPGERATLSCRASQGISDYLHWYQQKPGEAPRLLIKYTSQPATGIPARFSGSGSGTDFTLTISSLEPEDFGVYYCQNGHSFPLTFGAGTKLELK | 22
VH SEQ ID NO 586 / VL SEQ ID NO 502 (antibody, IgG4, V domains shown, humanized 11F2; IgG4 S228P/kappa) VH: QVQLQESGPGLVKPSDTLSLTCAVSGYSISSDSAWSWIRQPPGKGLEWIGYIQYSGSTNYNPSLKSRVTMSVDTSKNQFSLKLSSVTALDTAVYYCARSVNYYGNSFAVGYWGQGTLVTVSS VL: EIVLTQSPATLSLSPGERATLSCRASQGVSDYLHWYQQKPGQAPRLLIKYTSQPATGIPARFSGSGSGTDFTLTISSLEPEDFAVYYCQNGHSFPLTFGQGTKLEIK | 15
VH SEQ ID NO 594 / VL SEQ ID NO 342 (antibody, IgG4, V domains shown, humanized 11F2; IgG4 S228P/kappa) VH: QVQLQESGPGLVKPSDTLSLTCAVSGYSISSDSAWSWIRQPPGKKLEWIGYIQYSGSTNYNPSLKSRVTMSVDTSKNQFSLKLSSVTALDTAVYYCARSVNYYGNSFAVGPWGQGTLVTVSS VL: EIVLTQSPATLSLSPGERATLSCRASQGISDYLHWYQQKPGQAPRLLIKYTSQPATGIPARFSGSGSGRDFTLTISSLEPEDFAVYYCQNGHSFPLTFGAGTKLELK | 120
